From the supplement of paper PMC10065799, “High-throughput profiling of sequence recognition by tyrosine kinases and SH2 domains using bacterial peptide display” (eLife, 2023)

How the values were obtained:
c-Src SH2 = assay: SH2 binding enrichment of the phosphorylated peptide, bacterial display (enrichment ratio); higher = better substrate or ligand; peptides without Tyr show the background
SHP2-C SH2 = assay: as above
Grb2 SH2 = Grb2 SH2 (UniProt P62993); assay: as above
Jak2 = Jak2 (UniProt O60674); assay: phosphorylation enrichment, bacterial display (enrichment ratio); higher = better substrate or ligand; peptides without Tyr show the background
EPHB2 = EPHB2 (UniProt P29323); assay: as above
EPHB1 = EPHB1 (UniProt P54762); assay: as above
Fyn = Fyn (UniProt P06241); assay: as above
Fes = Fes (UniProt P07332); assay: as above
AncSZ = assay: as above
FGFR3 = FGFR3 (UniProt P22607); assay: as above
c-Src = assay: as above
Fer (mouse) = assay: as above
Hck = Hck (UniProt P08631); assay: as above
FGFR1 = FGFR1 (UniProt P11362); assay: as above
c-Abl (mouse) = assay: as above
MERTK = MERTK (UniProt Q12866); assay: as above
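Wherever SH2 binding enrichment of the phosphorylated peptide, bacterial display is given: peptide library displayed on the E. coli surface as eCPX fusions, selected cells deep-sequenced, score is each peptide's frequency after selection divided by its frequency in the input.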
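Wherever phosphorylation enrichment, bacterial display is given: 11-residue human phosphosite peptides and single-mutation variants displayed on the E. coli surface, counted by deep sequencing, each peptide's frequency after selection divided by its frequency in the unselected input library; frequency after pTyr selection over input frequency; kinase dosed for 20-30% of maximal phosphorylation in three min.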

EPHB1, sequence (P54762 whole entry, looked up): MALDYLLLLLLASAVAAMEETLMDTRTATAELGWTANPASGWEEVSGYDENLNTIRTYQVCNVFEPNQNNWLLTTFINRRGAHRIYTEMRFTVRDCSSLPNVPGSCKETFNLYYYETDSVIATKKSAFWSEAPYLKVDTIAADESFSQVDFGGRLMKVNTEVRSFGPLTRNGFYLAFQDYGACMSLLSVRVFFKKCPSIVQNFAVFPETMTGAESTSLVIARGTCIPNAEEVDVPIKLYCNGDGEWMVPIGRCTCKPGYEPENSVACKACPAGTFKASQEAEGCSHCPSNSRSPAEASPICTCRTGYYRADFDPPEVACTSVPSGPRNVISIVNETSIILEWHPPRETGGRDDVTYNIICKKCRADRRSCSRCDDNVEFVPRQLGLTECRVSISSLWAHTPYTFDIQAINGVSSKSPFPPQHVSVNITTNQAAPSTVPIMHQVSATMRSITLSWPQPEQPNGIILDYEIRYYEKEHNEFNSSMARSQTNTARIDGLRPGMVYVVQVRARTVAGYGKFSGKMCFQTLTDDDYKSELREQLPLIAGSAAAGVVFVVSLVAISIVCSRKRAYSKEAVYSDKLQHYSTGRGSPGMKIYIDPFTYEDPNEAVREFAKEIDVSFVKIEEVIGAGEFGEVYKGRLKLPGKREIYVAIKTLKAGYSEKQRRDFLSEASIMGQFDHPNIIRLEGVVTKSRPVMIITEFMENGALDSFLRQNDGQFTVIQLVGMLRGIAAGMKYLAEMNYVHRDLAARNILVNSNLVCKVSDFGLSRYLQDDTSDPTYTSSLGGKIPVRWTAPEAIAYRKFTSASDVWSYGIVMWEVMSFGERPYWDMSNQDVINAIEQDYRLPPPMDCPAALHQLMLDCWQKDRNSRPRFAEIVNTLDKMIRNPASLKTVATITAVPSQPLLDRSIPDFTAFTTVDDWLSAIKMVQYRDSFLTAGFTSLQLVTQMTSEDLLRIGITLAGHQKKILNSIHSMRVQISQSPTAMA
Jak2, sequence (O60674 whole entry, looked up): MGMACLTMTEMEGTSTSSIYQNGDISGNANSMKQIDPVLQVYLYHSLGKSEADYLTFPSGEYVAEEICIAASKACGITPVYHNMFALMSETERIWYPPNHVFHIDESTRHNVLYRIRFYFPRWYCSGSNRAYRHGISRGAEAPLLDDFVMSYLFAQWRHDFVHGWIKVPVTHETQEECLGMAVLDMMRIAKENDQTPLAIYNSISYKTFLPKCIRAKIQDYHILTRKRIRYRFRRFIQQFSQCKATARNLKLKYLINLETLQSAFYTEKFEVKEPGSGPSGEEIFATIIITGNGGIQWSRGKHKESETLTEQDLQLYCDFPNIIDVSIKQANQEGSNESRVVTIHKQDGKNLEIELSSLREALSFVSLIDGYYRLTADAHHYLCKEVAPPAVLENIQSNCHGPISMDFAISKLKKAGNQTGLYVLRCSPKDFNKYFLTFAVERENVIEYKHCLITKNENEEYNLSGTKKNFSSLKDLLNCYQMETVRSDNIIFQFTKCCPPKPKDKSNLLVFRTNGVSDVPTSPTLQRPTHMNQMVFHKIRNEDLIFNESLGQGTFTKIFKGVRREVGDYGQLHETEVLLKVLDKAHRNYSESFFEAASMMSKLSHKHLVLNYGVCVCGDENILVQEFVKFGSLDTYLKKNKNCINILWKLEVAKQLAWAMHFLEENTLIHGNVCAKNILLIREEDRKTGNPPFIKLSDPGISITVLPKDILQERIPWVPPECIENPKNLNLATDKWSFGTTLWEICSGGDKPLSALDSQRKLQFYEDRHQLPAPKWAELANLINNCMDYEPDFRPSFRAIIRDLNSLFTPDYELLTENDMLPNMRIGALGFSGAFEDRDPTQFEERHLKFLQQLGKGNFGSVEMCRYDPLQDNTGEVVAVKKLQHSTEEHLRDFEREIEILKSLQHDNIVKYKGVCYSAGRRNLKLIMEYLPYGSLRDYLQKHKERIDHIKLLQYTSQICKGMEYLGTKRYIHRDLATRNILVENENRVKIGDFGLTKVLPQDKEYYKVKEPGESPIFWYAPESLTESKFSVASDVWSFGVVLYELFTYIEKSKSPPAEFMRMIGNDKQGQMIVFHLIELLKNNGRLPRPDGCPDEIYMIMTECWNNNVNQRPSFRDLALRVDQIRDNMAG
FGFR3, sequence (P22607 whole entry, looked up): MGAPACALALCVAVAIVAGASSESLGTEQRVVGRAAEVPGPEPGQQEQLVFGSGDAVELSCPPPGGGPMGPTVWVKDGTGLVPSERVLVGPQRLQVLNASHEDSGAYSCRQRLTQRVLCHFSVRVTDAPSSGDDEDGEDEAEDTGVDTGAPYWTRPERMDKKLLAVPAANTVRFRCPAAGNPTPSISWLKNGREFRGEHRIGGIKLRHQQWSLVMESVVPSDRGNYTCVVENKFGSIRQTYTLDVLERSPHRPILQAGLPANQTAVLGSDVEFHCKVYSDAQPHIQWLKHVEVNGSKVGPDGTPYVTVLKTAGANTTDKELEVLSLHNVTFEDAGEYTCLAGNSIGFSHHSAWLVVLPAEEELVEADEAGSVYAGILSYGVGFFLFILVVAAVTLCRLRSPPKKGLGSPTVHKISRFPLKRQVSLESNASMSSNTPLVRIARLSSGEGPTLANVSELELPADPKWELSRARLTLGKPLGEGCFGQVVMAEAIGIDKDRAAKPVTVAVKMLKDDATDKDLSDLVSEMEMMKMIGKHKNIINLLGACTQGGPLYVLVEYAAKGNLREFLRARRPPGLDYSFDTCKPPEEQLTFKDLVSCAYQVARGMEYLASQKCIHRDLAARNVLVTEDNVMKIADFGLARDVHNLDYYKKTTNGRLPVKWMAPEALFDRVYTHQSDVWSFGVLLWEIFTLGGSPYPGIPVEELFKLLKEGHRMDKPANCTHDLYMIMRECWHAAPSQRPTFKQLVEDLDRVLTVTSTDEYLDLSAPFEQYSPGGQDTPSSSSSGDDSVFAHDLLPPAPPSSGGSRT
EPHB2, sequence (P29323 whole entry, looked up): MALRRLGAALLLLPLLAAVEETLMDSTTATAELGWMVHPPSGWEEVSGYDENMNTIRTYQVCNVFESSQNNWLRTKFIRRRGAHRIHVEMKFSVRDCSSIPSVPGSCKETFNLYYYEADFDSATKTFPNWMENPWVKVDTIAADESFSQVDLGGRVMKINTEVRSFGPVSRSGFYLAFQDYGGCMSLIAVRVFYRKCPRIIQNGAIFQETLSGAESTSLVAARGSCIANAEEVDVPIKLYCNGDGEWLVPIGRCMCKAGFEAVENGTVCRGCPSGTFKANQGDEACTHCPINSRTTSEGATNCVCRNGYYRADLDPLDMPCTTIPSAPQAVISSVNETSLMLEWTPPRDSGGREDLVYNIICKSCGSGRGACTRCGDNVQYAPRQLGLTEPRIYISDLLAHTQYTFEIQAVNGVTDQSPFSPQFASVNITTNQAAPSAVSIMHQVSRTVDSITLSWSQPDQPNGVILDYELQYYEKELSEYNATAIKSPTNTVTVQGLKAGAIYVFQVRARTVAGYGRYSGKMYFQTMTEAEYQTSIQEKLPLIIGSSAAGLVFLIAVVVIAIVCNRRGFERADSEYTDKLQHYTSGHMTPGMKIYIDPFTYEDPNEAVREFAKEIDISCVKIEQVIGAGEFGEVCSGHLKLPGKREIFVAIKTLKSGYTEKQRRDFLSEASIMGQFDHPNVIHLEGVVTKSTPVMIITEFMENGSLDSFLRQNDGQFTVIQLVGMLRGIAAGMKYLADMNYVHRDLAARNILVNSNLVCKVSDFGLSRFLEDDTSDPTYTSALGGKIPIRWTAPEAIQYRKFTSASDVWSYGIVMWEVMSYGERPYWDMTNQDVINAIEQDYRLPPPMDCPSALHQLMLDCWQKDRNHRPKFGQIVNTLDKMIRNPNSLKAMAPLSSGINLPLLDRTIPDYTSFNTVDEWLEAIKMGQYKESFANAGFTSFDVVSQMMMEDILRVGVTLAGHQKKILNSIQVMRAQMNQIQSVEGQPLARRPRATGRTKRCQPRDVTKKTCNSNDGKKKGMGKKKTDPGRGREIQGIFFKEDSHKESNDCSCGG
Fes, sequence (P07332 whole entry, looked up): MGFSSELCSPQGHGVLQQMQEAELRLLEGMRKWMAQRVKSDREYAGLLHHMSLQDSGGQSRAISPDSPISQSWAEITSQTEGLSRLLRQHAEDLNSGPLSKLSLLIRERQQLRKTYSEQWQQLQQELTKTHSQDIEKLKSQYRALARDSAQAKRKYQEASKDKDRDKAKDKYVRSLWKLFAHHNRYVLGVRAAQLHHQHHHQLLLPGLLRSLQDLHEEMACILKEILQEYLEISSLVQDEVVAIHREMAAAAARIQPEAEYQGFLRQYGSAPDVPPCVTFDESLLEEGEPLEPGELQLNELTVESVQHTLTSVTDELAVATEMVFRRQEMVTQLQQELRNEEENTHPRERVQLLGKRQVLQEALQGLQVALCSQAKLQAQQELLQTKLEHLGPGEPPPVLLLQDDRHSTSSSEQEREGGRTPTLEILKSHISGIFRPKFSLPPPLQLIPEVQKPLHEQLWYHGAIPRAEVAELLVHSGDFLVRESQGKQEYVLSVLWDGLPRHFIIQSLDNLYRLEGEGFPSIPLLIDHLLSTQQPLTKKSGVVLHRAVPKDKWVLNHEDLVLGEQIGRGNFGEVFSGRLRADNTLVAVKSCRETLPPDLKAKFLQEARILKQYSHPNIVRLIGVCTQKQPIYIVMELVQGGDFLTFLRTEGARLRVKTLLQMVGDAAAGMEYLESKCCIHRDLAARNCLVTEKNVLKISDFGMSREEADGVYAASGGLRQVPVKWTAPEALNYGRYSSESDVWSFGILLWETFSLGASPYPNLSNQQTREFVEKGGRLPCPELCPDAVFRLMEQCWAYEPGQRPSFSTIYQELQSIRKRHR

SH2 binding enrichment (c-Src SH2)	SH2 binding enrichment (SHP2-C SH2)	SH2 binding enrichment (Grb2 SH2)	Sequence	phosphorylation enrichment (Jak2)	phosphorylation enrichment (EPHB2)	phosphorylation enrichment (EPHB1)	phosphorylation enrichment (Fyn)	phosphorylation enrichment (Fes)	phosphorylation enrichment (AncSZ)	phosphorylation enrichment (FGFR3)	phosphorylation enrichment (c-Src)	phosphorylation enrichment (Fer (mouse))	phosphorylation enrichment (Hck)	phosphorylation enrichment (FGFR1)	phosphorylation enrichment (c-Abl (mouse))	phosphorylation enrichment (MERTK)
7.49	0.928	0.973	DLRTGYSVPFG [TGM1_Y370_Y365D_YF]	0.576	0.468	0.44	0.48	0.721	0.664	0.644	0.341	0.486	0.418	0.493	0.794	0.364
0.541	0.541	0.735	KNAEKYAEEDW [HSPA9_Y568_R573W]	1.21	0.727	0.667	0.533	1.56	1.32	0.776	0.51	0.487	0.52	0.763	0.895	0.533
0.478	0.531	0.775	TIMTNYNPNFC [ALK_Y1092_D1091N_YF]	0.865	0.784	0.43	0.545	1.06	0.987	0.694	0.533	0.512	0.5	0.576	0.716	0.485
10.5	1.89	26.7	VLNHAYENLTR [SYNE2_Y3255_D3253H]	0.507	0.4	0.366	0.33	0.579	0.565	0.625	0.405	0.417	0.383	0.494	0.5	0.303
0.524	0.65	0.697	WKEIEYEVVRD [CPS1_Y634]	0.899	1.2	0.701	0.553	1.09	1.31	0.754	0.473	0.583	0.609	0.549	0.573	0.384
0.512	0.688	0.824	DKATEYSQFMR [MAX_Y70_I71S_YF]	0.524	0.541	0.39	0.733	0.683	0.84	0.397	0.873	0.392	0.631	0.449	0.519	0.423
1.43	5.17	1.07	GVRYTYTIDGS [DCX_Y105_I104T]	0.981	0.623	0.562	0.543	1.08	0.986	0.758	0.56	0.429	0.483	0.521	0.634	0.447
1.45	2.02	1.52	SFCFRYRCAAQ [SUMF1_Y344_R349Q_YF]	0.745	0.523	0.427	0.411	0.762	1.25	0.463	0.555	0.402	0.514	0.47	0.682	0.553
1.63	0.601	0.837	VIECSYTSADG [DHCR7_Y382]	0.934	0.538	0.524	0.478	1.39	1.02	0.623	0.556	0.496	0.471	0.544	0.825	0.423
0.78	0.832	1.05	SCRENYSDSEE [LEMD3_Y258]	1	0.619	0.607	0.52	1.14	1.07	0.694	0.475	0.434	0.502	0.547	0.792	0.539
0.556	1.93	1.09	SLHPGYNFRYA [P2RX7_Y291_Y288H]	0.925	0.497	0.351	0.424	0.949	0.657	0.545	0.454	0.442	0.492	0.431	0.637	0.622
0.489	0.533	0.964	RRGTRYMSSRP [RPL21_Y13_F15S]	0.699	0.499	0.481	0.772	0.473	0.439	0.633	0.947	0.578	0.621	0.551	0.527	0.57
0.456	0.614	0.619	KHGGNYVPAPE [OSCP1_Y237_K242E]	0.471	0.471	0.369	0.398	0.626	0.754	0.477	0.405	0.36	0.325	0.403	0.455	0.345
0.425	0.544	0.97	PPQFSYGLQTQ [SRA1_Y35]	0.433	0.584	0.333	0.346	0.604	0.466	0.308	0.426	0.286	0.443	0.586	0.483	0.467
0.51	0.432	0.662	TEIGQYGNGLK [MORC2_Y100_Q96E]	0.588	0.434	0.543	0.393	0.579	0.522	0.499	0.331	0.394	0.448	0.404	0.556	0.354
1.74	11.3	0.928	RQRTAYFSLDT [CDH1_Y68]	0.691	0.293	0.426	0.38	0.767	0.669	0.504	0.533	0.414	0.357	0.586	0.752	0.535
0.393	0.872	0.769	GVRLYYRVRES [RB1_Y454_M457R]	0.964	0.447	0.435	0.435	1.08	1.54	0.781	0.285	0.483	0.408	0.662	0.39	0.403

SH2 binding enrichment (c-Src SH2)	SH2 binding enrichment (SHP2-C SH2)	SH2 binding enrichment (Grb2 SH2)	Sequence	phosphorylation enrichment (Jak2)	phosphorylation enrichment (EPHB2)	phosphorylation enrichment (EPHB1)	phosphorylation enrichment (Fyn)	phosphorylation enrichment (Fes)	phosphorylation enrichment (AncSZ)	phosphorylation enrichment (FGFR3)	phosphorylation enrichment (c-Src)	phosphorylation enrichment (Fer (mouse))	phosphorylation enrichment (Hck)	phosphorylation enrichment (FGFR1)	phosphorylation enrichment (c-Abl (mouse))	phosphorylation enrichment (MERTK)
0.765	0.737	1.09	QNKEDYDGLKE [GSTO1_Y139_A140D]	1.13	1.04	1.02	0.943	1.74	1.83	1.3	0.641	0.754	0.915	0.867	1.19	0.666
0.501	0.671	0.716	APRKVYDTQDD [ZFPL1_Y215_R218Q]	0.808	0.685	0.692	0.495	1.09	0.993	0.653	0.479	0.67	0.586	0.549	0.766	0.466
12.1	19.3	0.826	NGSKGYAYVHF [PABPC5_Y147]	0.961	0.61	0.553	0.493	0.904	1.08	0.718	0.456	0.516	0.499	0.736	0.707	0.519
0.534	0.55	0.668	VPLATYMRIYK [RPL21_Y30]	1.01	0.492	0.511	0.454	0.958	0.887	0.687	0.429	0.517	0.477	0.526	0.591	0.412
0.773	0.802	0.869	SSAKTYSRMRL [NBEAL2_Y1835_E1833K]	0.52	0.366	0.354	0.406	0.552	0.433	0.394	0.427	0.379	0.453	0.34	0.542	0.4
0.49	0.783	0.742	PVFQVYPLLNC [GATA1_Y78]	1.72	0.64	0.775	0.652	1.87	1.7	1.43	0.697	0.758	0.654	1.27	1.13	0.927
0.443	0.54	0.765	REHTVYGEPRK [MAGEA4_Y240]	0.674	0.687	0.588	0.869	0.851	0.716	0.684	0.599	0.52	0.903	0.664	1.03	0.492
0.631	0.751	0.939	HRNGMYGLHQD [SGSH_Y89_Q85R]	0.626	0.51	0.39	0.49	0.428	0.515	0.421	0.389	0.432	0.294	0.485	0.502	0.396
0.375	0.501	0.646	HRGSLYLAIEY [TEK_Y899_Y897S]	2.2	0.776	0.819	0.58	2.15	1.87	1.3	0.734	0.853	0.798	0.581	2.14	0.834
5.58	0.8	0.989	RYMELYDLNRD [BBS2_Y648]	1.4	1.05	1.52	1.67	1.41	1.41	1.24	4.49	1.14	1.89	1.04	0.993	1.32
1.25	6.22	1.37	RPPFTYATLIR [FOXP3_Y342]	1.29	0.737	1.64	2.14	1.01	1.14	0.813	3.29	0.55	2.58	0.913	0.686	1.01
1.56	0.628	0.94	VHSGTYQVMVR [MYBPC3_Y1043_T1046M]	0.467	0.648	2.04	0.539	0.637	0.711	0.468	0.988	0.343	1.98	0.456	0.489	1.27
1.3	0.617	0.966	EQAERYDDMAA [YWHAG_Y20]	0.87	0.51	0.508	0.537	1.03	1.22	0.737	0.426	0.501	0.501	0.547	0.653	0.407
0.404	0.574	0.761	SGFESYGSSSF [RPA2_Y9_YF]	0.436	0.432	0.433	0.448	0.601	0.591	0.539	0.368	0.389	0.481	0.443	0.436	0.348
0.416	0.68	0.879	AASTDYFKRGD [PDHA1_Y242_YF]	0.57	0.454	0.372	0.462	0.663	0.625	0.426	0.352	0.363	0.45	0.402	0.421	0.325
0.443	0.795	0.732	LSIQCYLRASD [HMGCS2_Y262_L266S]	2.95	3.31	3.37	2.73	4.92	3.81	5.23	0.998	2.44	2.46	1.99	1.87	1.2
